According to patent US20230256092A1, “COMBINED USE OF ANTI-CCR8 ANTIBODY AND CHEMOTHERAPEUTIC AGENT” (Shionogi & Co., Ltd., priority 2020, published 2023):
Numbering of substitutions follows the chain as printed. Names and notes keep the numbering of the source.

B1: h10A11 (IGKV4-1/IGHV3-73 R50K): humanized 10A11 heavy chain CDR point mutant (antibody, V domains shown)
VL: DIVMTQSPDSLAVSLGERATINCRSSKSLLHSNGNTYLYWYQQKPGQPPKLLIYRMSNLASGVPDRFSGSGSGTDFTLTISSLQAEDVAVYYCMQHLEYPLTFGQGTKLEIKRT
VH: EVQLVESGGGLVQPGGSLKLSCAASGFAFNTYALYWVRQASGKGLEWVGKIRSKSNNYATYYADSVKDRFTISRDDSKNTAYLQMNSLKTEDTAVYYCTRARFYYSDYGYAMDYWGQGTLVTVSS
B2: h10A11 (IGKV4-1/IGHV3-73 Y58F): humanized 10A11 heavy chain CDR point mutant (antibody, V domains shown)
VL: B1 VL
VH: B1 VH with K50R, Y61F
B3: h10A11 (IGKV4-1/IGHV3-73 I51L): humanized 10A11 heavy chain CDR point mutant (antibody, V domains shown)
VL: B1 VL
VH: B1 VH with K50R, I51L
B4: h10A11 (IGKV4-1/IGHV3-73 A60V): humanized 10A11 heavy chain CDR point mutant (antibody, V domains shown)
VL: B1 VL
VH: B1 VH with K50R, A63V
B5: h10A11 (IGKV4-1/IGHV3-73 Y55F): humanized 10A11 heavy chain CDR point mutant (antibody, V domains shown)
VL: B1 VL
VH: B1 VH with K50R, Y58F
B6: h10A11 (IGKV4-1/IGHV3-73 S52cT): humanized 10A11 heavy chain CDR point mutant (antibody, V domains shown)
VL: B1 VL
VH: B1 VH with K50R, S55T
B7: h10A11 (IGKV4-1/IGHV3-73 Y100bF): humanized 10A11 heavy chain CDR point mutant (antibody, V domains shown)
VL: B1 VL
VH: B1 VH with K50R, Y108F
B8: h10A11 (IGKV4-1/IGHV3-73 Y98F): humanized 10A11 heavy chain CDR point mutant (antibody, V domains shown)
VL: B1 VL
VH: B1 VH with K50R, Y104F
B9: h10A11 (IGKV4-1/IGHV3-73 Y100dF): humanized 10A11 heavy chain CDR point mutant (antibody, V domains shown)
VL: B1 VL
VH: B1 VH with K50R, Y110F
B10: h10A11 (IGKV4-1/IGHV3-73 Y59F): humanized 10A11 heavy chain CDR point mutant (antibody, V domains shown)
VL: B1 VL
VH: B1 VH with K50R, Y62F
B11: h10A11 (IGKV4-1/IGHV3-73 V63L): humanized 10A11 heavy chain CDR point mutant (antibody, V domains shown)
VL: B1 VL
VH: B1 VH with K50R, V66L
B12: h10A11 (IGKV4-1/IGHV3-73 T57S): humanized 10A11 heavy chain CDR point mutant (antibody, V domains shown)
VL: B1 VL
VH: B1 VH with K50R, T60S
B13: h10A11 (IGKV4-1/IGHV3-73 S100T): humanized 10A11 heavy chain CDR point mutant (antibody, V domains shown)
VL: B1 VL
VH: B1 VH with K50R, S106T
B14: h10A11 (IGKV4-1/IGHV3-73 Y99F): humanized 10A11 heavy chain CDR point mutant (antibody, V domains shown)
VL: B1 VL
VH: B1 VH with K50R, Y105F
B15: h10A11 (IGKV4-1/IGHV3-73 N53Q): humanized 10A11 heavy chain CDR point mutant (antibody, V domains shown)
VL: B1 VL
VH: B1 VH with K50R, N56Q
B16: h10A11 (IGKV4-1/IGHV3-73 F97L): humanized 10A11 heavy chain CDR point mutant (antibody, V domains shown)
VL: B1 VL
VH: B1 VH with K50R, F103L
B17: h10A11 (IGKV4-1/IGHV3-73 S52aT): humanized 10A11 heavy chain CDR point mutant (antibody, V domains shown)
VL: B1 VL
VH: B1 VH with K50R, S53T
B18: h10A11 (IGKV4-1/IGHV3-73 S62T): humanized 10A11 heavy chain CDR point mutant (antibody, V domains shown)
VL: B1 VL
VH: B1 VH with K50R, S65T
B19: h10A11 (IGKV4-1/IGHV3-73 R96K): humanized 10A11 heavy chain CDR point mutant (antibody, V domains shown)
VL: B1 VL
VH: B1 VH with K50R, R102K
B20: h10A11 (IGKV4-1/IGHV3-73 D65E): humanized 10A11 heavy chain CDR point mutant (antibody, V domains shown)
VL: B1 VL
VH: B1 VH with K50R, D68E
B21: h10A11 (IGKV4-1/IGHV3-73 A56V): humanized 10A11 heavy chain CDR point mutant (antibody, V domains shown)
VL: B1 VL
VH: B1 VH with K50R, A59V
B22: h10A11 (IGKV4-1/IGHV3-73 D61E): humanized 10A11 heavy chain CDR point mutant (antibody, V domains shown)
VL: B1 VL
VH: B1 VH with K50R, D64E
B23: h10A11 (IGKV4-1/IGHV3-73 A100eV): humanized 10A11 heavy chain CDR point mutant (antibody, V domains shown)
VL: B1 VL
VH: B1 VH with K50R, A111V
B24: h10A11 (IGKV4-1/IGHV3-73 D100aE): humanized 10A11 heavy chain CDR point mutant (antibody, V domains shown)
VL: B1 VL
VH: B1 VH with K50R, D107E
B25: h10A11 (IGKV4-1/IGHV3-73 M100fL): humanized 10A11 heavy chain CDR point mutant (antibody, V domains shown)
VL: B1 VL
VH: B1 VH with K50R, M112L
B26: h10A11 (IGKV4-1/IGHV3-73 G100cA): humanized 10A11 heavy chain CDR point mutant (antibody, V domains shown)
VL: B1 VL
VH: B1 VH with K50R, G109A
B27: h10A11 (IGKV4-1/IGHV3-73 K64R): humanized 10A11 heavy chain CDR point mutant (antibody, V domains shown)
VL: B1 VL
VH: B1 VH with K50R, K67R
B28: h10A11 (IGKV4-1/IGHV3-73 R52K): humanized 10A11 heavy chain CDR point mutant (antibody, V domains shown)
VL: B1 VL
VH: B1 VH with K50R, R52K
B29: h10A11 (IGKV4-1/IGHV3-73 K52bR): humanized 10A11 heavy chain CDR point mutant (antibody, V domains shown)
VL: B1 VL
VH: B1 VH with K50R, K54R

Target: T1, human CCR8 (Homo sapiens, UniProt P51685)
T1 construct: expressed in transfected cells; host or cells: 293 cells
Experiment: Neutralizing activity: inhibition of Ca2+ influx by 200 nM hCCL1 in human CCR8 expressing 293 cells (FLIPR), Test Example 6
Format: cell-based
Conditions: Table 9; WT IC50/mutant IC50; humanized 10A11 heavy chain CDR mutants, IGKV4-1/IGHV3-73
Experimental: The antibody dilution diluted with a medium was added to human CCR8 expressing 293 cells in which a Ca^2+ indicator was incorporated beforehand, and Ca^2+ influx by addition of 200 nM hCCL1 (manufactured by BioLegend) was measured with FLIPR. […] The evaluation was performed at least three times, and IC50 was expressed as average±SD.

IC50 ratio	Molecule
0.12	B1
0.50	B2
0.22	B3
0.67	B4
0.47	B5
0.53	B6
0.75	B7
0.07	B8
0.55	B9
0.03	B10
0.56	B11
0.49	B12
0.64	B13
0.80	B14
0.03	B15
0.22	B17
1.60	B18
1.30	B20
0.55	B21
0.25	B22
0.49	B23
0.30	B24
0.72	B25
0.07	B26
0.54	B27
0.47	B29

Molecule	IC50 ratio
B16	n.d. (The n.d. (=not detectable) indicates that the IC50 value of the mutant is 10 nM or more)
B19	n.d. (The n.d. (=not detectable) indicates that the IC50 value of the mutant is 10 nM or more)
B28	n.d. (The n.d. (=not detectable) indicates that the IC50 value of the mutant is 10 nM or more)
